Positions of bridges follow the written chain, without caps; N, C: chain ends. Non-standard residues stand in square brackets, D forms with d. No end group written: not given here.
What was measured:
[1] = target: T1, human delta opioid receptor (human, UniProt P41143 1-372); experiment: radioligand competition, 3H-DPDPE, membranes of CHO cells expressing cloned human delta receptor
[2] = target: human kappa opioid receptor (human) (UniProt P41145); experiment: cell-based or functional assay
[3] = target: human mu opioid receptor (human) (UniProt P35372); experiment: cell-based or functional assay
[4] = target: human kappa opioid receptor (human) (UniProt P41145); experiment: ratio of Ki at kappa to Ki at mu, radioligand competition
[5] = target: human mu opioid receptor (human) (UniProt P35372); experiment: radioligand competition, 3H-DAMGO, membranes of CHO cells expressing cloned human mu receptor
[6] = target: T1, human delta opioid receptor; experiment: cell-based or functional assay
[7] = target: human kappa opioid receptor (human) (UniProt P41145); experiment: radioligand competition, 3H-U69593, membranes of CHO cells expressing cloned human kappa receptor
[8] = target: T1, human delta opioid receptor; experiment: ratio of Ki at delta to Ki at mu, radioligand competition

| Molecule | Ki [1] [nM] | Agonist EC50 (35S-GTPγS assay) [2] [nM] | Selectivity kappa/mu (agonist EC50) [2] | Agonist EC50 (35S-GTPγS assay) [3] [nM] | efficacy of mu activation (35S-GTPγS) [3] [%] | Selectivity Kappa/Mu [4] | Ki [5] [nM] | Agonist EC50 (35S-GTPγS assay) [6] [nM] | Selectivity delta/mu (agonist EC50) [6] | Ki [7] [nM] | Selectivity Delta/Mu [8] | Delta Antagonist IC 50 [6] [nM] |
| --- | --- | --- | --- | --- | --- | --- | --- | --- | --- | --- | --- | --- |
| ck2, Tyr-c[D-Lys-Phe-Phe] (peptide) | 3 | 206 | 1370 | 0.15 | > 90 | 33 | 0.36 | 7 | 44 | 12 | 9 | – |
| ck1, Tyr-c[D-Lys-Trp-Phe] (peptide) | 28 | 470 | 2240 | 0.21 | > 90 | 111 | 0.32 | 138 | 658 | 35 | 90 | – |
| Y[dE]FFK-NH2 (lactam 2-5; N-terminus assumed; SMILES NC(=O)[C@@H]1CCCCNC(=O)CC[C@@H](NC(=O)[C@@H](N)Cc2ccc(O)cc2)C(=O)N[C@@H](Cc2ccccc2)C(=O)N[C@@H](Cc2ccccc2)C(=O)N1) [Compound 2, Tyr-c[D-Glu-Phe-Phe-Lys]-NH2] | – | – | – | – | – | – | – | – | – | – | – | 2750 |
| YPFF-NH2 [endomorphin-2 (Tyr-Pro-Phe-Phe-NH2)] | – | – | – | – | – | – | – | – | – | – | – | 30000 |
| Y[dK]WFE-NH2 (lactam 2-5; N-terminus assumed; SMILES NC(=O)[C@@H]1CCC(=O)NCCCC[C@@H](NC(=O)[C@@H](N)Cc2ccc(O)cc2)C(=O)N[C@@H](Cc2c[nH]c3ccccc23)C(=O)N[C@@H](Cc2ccccc2)C(=O)N1) [Compound 1, Tyr-c[D-Lys-Trp-Phe-Glu]-NH2] | – | – | – | – | – | – | – | – | – | – | – | 105 |
| Y[dK]WFD-NH2 (lactam 2-5; N-terminus assumed; SMILES NC(=O)[C@@H]1CC(=O)NCCCC[C@@H](NC(=O)[C@@H](N)Cc2ccc(O)cc2)C(=O)N[C@@H](Cc2c[nH]c3ccccc23)C(=O)N[C@@H](Cc2ccccc2)C(=O)N1) [Compound 5, Tyr-c[D-Lys-Trp-Phe-Asp]-NH2] | – | – | – | – | – | – | – | – | – | – | – | 557 |

Reference: patent publication US20170362276A1 (published 2017)
